Results from paper PMC9601244.

Target: NGAL (neutrophil gelatinase-associated lipocalin) (UniProt P80188 24-198, C107S)
Assay: dipstick lateral-flow sandwich assay

Sequence of NGAL (neutrophil gelatinase-associated lipocalin) (P80188 24-198 C107S): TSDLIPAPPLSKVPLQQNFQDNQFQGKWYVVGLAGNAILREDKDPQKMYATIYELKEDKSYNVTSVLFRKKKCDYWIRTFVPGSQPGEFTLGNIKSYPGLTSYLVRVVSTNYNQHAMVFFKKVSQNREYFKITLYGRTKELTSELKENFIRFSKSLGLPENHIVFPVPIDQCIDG

B1: NGAL truncated aptamer, biotinylated (26-base) (ssDNA)
DNA: ATGGCGGAGCTGGATAGTATAGTCGG
B1: binds.
